The target in assay [1] is B-cell lymphoma extra-large protein (Bcl-xL), first 209 amino acids with N-terminal avitag (UniProt Q07817). Kind of assay: HTSK: from on- and off-rates of the mRNA-peptide fusion.
Assay [2] shares this target. Kind of assay: HTSK: mRNA-peptide fusion pool on Bcl-xL beads, next-generation sequencing.

Among the data in patent US20180172683A1, “METHODS FOR ANALYZING THE INTERACTION BETWEEN A TARGET PROTEIN AND A LIGAND” (UNIVERSITY OF SOUTHERN CALIFORNIA, priority 2015, published 2018) are Kd and koff values, retold here.

Ends that are not written are not given here.

Chain of B-cell lymphoma extra-large protein (Bcl-xL), first 209 amino acids with N-terminal avitag (Q07817 other isoform, or with tags, fused parts or gaps): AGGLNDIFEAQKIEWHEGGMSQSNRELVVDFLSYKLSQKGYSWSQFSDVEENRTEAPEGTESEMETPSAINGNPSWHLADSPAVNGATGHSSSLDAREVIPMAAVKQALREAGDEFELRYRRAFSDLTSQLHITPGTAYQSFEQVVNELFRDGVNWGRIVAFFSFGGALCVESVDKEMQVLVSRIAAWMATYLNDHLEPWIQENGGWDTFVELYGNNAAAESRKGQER

B1: D1, mRNA-peptide fusion in the selection pool (HTSK) (peptide, not shown: a dimerising Fc or GST)
peptide: MIAISTIYNYKKAADHYAMTK
modifications: not fully specified; also: C-terminus joined via puromycin to DNA linker and reverse-transcribed mRNA
In assay [1], B1 came in with a Kd of 0.015 nM. In assay [2], this molecule came in with a koff of 1e-06 s⁻¹.

B2: D79, mRNA-peptide fusion in the doped selection pool (HTSK) (peptide, not shown: a dimerising Fc or GST)
peptide: MIDTNVILNYKKAADHFSITM
modifications: not fully specified; also: C-terminus joined via puromycin to DNA linker and reverse-transcribed mRNA
B2 yielded a Kd in assay [1] of 0.0024 nM. The molecule also came in with a koff in assay [2] of 3.3e-07 s⁻¹.

B3: E1, mRNA-peptide fusion in the selection pool (HTSK) (peptide, not shown: a dimerising Fc or GST)
peptide: MIETITIYNYKKAADHFSMSM
modifications: not fully specified; also: C-terminus joined via puromycin to DNA linker and reverse-transcribed mRNA
For the molecule B3, the dissociation constant (Kd) in assay [1] is 0.023 nM. The same molecule returned a koff in assay [2] of 2.5e-06 s⁻¹.

As usually defined, the Kd is the free concentration of one partner at which half of the binding sites on the other are occupied at equilibrium, for simple one-to-one binding. Read a high Kd as weaker binding. In general, koff refers to the first-order rate constant of dissociation. The low end stands for a long-lived complex, the high end for a short-lived complex.
